The chains are these.
B1: mRNA-splicing (parent)
chain: AGUUGCUGCUGGGAGCUCCAGCACAGUGAAAUGGACAGAAGGGCAGAGCAA

The data set covers variants of B1. The experiment in a line: exon inclusion enrichment index; higher = more inclusion; WT1 exon 5 minigene, HEK293.
For AGUUGAAGAAGGCAGCUCCAGCACAGUGAAAUGGACAGAAGGGCAGAGCAA [C6A U7A C9A U10A G13C], the “exon inclusion enrichment index” value stood at 1.04.

As for AGUUGAAGAAGGUAGCUCCAGCACAGUGAAAUGGACAGAAGGGCAGAGCAA [C6A U7A C9A U10A G13U], the “exon inclusion enrichment index” value was 0.142.

As for AGUUGAAGAAGGAAGCUCCAGCACAGUGAAAUGGACAGAAGGGCAGAGCAA [C6A U7A C9A U10A G13A], the “exon inclusion enrichment index” value is 1.97.

Take AGUUGAAGAAGGGAGCUCCAGUUCAGUGAAAUGGACAGAAGGGCAGAGCAA [C6A U7A C9A U10A C22U A23U]: the “exon inclusion enrichment index” value amounted to 0.226.

Take AGUUGAAGAAGGGAGCUCCAGUGCAGUGAAAUGGACAGAAGGGCAGAGCAA [C6A U7A C9A U10A C22U A23G]: the “exon inclusion enrichment index” value was 0.694.

On to AGUUGAAGAAGGGAGCUCCAGUCCAGUGAAAUGGACAGAAGGGCAGAGCAA [C6A U7A C9A U10A C22U A23C], for which the “exon inclusion enrichment index” value came out at 0.267.

On to AGUUGAAGAAGGGAGCUCCAGCACAGUGAAAUGGAUCGAAGGGCAGAGCAA [C6A U7A C9A U10A C36U A37C], for which the “exon inclusion enrichment index” value amounted to 0.478.

On to AGUUGAAGAAGGGAGCUCCAGCACAGUGAAAUGGAUUGAAGGGCAGAGCAA [C6A U7A C9A U10A C36U A37U], for which the “exon inclusion enrichment index” value was determined as 0.411.

As for AGUUGAAGAAGGGAGCUCCAGCACAGUGAAAUGGAUGGAAGGGCAGAGCAA [C6A U7A C9A U10A C36U A37G], the “exon inclusion enrichment index” value stood at 0.602.

With AGUUGAAGAAGGCCGCUCCAGCACAGUGAAAUGGACAGAAGGGCAGAGCAA [C6A U7A C9A U10A G13C A14C], the “exon inclusion enrichment index” value stood at 1.58.

As for AGUUGAAGAAGGCUGCUCCAGCACAGUGAAAUGGACAGAAGGGCAGAGCAA [C6A U7A C9A U10A G13C A14U], the “exon inclusion enrichment index” value worked out at 1.56.

Turning to AGUUGAAGAAGGCGGCUCCAGCACAGUGAAAUGGACAGAAGGGCAGAGCAA [C6A U7A C9A U10A G13C A14G], the “exon inclusion enrichment index” value was determined as 1.42.

With AGUUGAAGAAGGGAGCUCCAAUACAGUGAAAUGGACAGAAGGGCAGAGCAA [C6A U7A C9A U10A G21A C22U], the “exon inclusion enrichment index” value worked out at 0.235.

For AGUUGAAGAAGGGAGCUCCAAGACAGUGAAAUGGACAGAAGGGCAGAGCAA [C6A U7A C9A U10A G21A C22G], the “exon inclusion enrichment index” value was determined as 0.568.

AGUUGAAGAAGGGAGCUCCAAAACAGUGAAAUGGACAGAAGGGCAGAGCAA [C6A U7A C9A U10A G21A C22A]: the “exon inclusion enrichment index” value stood at 0.228.

AGUUGAAGAAGGGAGCUCCAGCACAGUGAAAUGGACAGAAGGGAUGAGCAA [C6A U7A C9A U10A C44A A45U]: the “exon inclusion enrichment index” value is 1.71.

As to AGUUGAAGAAGGGAGCUCCAGCACAGUGAAAUGGACAGAAGGGAGGAGCAA [C6A U7A C9A U10A C44A A45G], the “exon inclusion enrichment index” value came out at 1.09.

Take AGUUGAAGAAGGGAGCUCCAGCACAGUGAAAUGGACAGAAGGGACGAGCAA [C6A U7A C9A U10A C44A A45C]: the “exon inclusion enrichment index” value was found to be 1.9.

As for AGUUGAAGAAGGACGCUCCAGCACAGUGAAAUGGACAGAAGGGCAGAGCAA [C6A U7A C9A U10A G13A A14C], the “exon inclusion enrichment index” value was 2.82.

As to AGUUGAAGAAGGAGGCUCCAGCACAGUGAAAUGGACAGAAGGGCAGAGCAA [C6A U7A C9A U10A G13A A14G], the “exon inclusion enrichment index” value stood at 1.21.

For the variant AGUUGAAGAAGGAUGCUCCAGCACAGUGAAAUGGACAGAAGGGCAGAGCAA [C6A U7A C9A U10A G13A A14U], the “exon inclusion enrichment index” value stood at 1.82.

In the case of AGUUGAAGAAGGGAGCUCCAGCAGUGUGAAAUGGACAGAAGGGCAGAGCAA [C6A U7A C9A U10A C24G A25U], the “exon inclusion enrichment index” value was 0.778.

Take AGUUGAAGAAGGGAGCUCCAGCAGGGUGAAAUGGACAGAAGGGCAGAGCAA [C6A U7A C9A U10A C24G A25G]: the “exon inclusion enrichment index” value is 0.308.

With AGUUGAAGAAGGGAGCUCCAGCAGCGUGAAAUGGACAGAAGGGCAGAGCAA [C6A U7A C9A U10A C24G A25C], the “exon inclusion enrichment index” value is 2.12.

AGUUGAAGAAGGGAUAUCCAGCACAGUGAAAUGGACAGAAGGGCAGAGCAA [C6A U7A C9A U10A G15U C16A]: the “exon inclusion enrichment index” value came out at 0.381.

Regarding AGUUGAAGAAGGGAUUUCCAGCACAGUGAAAUGGACAGAAGGGCAGAGCAA [C6A U7A C9A U10A G15U C16U], the “exon inclusion enrichment index” value came out at 0.36.

Take AGUUGAAGAAGGGAUGUCCAGCACAGUGAAAUGGACAGAAGGGCAGAGCAA [C6A U7A C9A U10A G15U C16G]: the “exon inclusion enrichment index” value came to 0.298.

With AGUUGAAGAAGUGAGCUCCAGCACAGUGAAAUGGACAGAAGGGCAGAGCAA [C6A U7A C9A U10A G12U], the “exon inclusion enrichment index” value came to 0.96.

For the variant AGUUGAAGAAGAGAGCUCCAGCACAGUGAAAUGGACAGAAGGGCAGAGCAA [C6A U7A C9A U10A G12A], the “exon inclusion enrichment index” value was found to be 1.32.

As to AGUUGAAGAAGCGAGCUCCAGCACAGUGAAAUGGACAGAAGGGCAGAGCAA [C6A U7A C9A U10A G12C], the “exon inclusion enrichment index” value came out at 2.21.

Consider AGUUGAAGAAGGGAGCUCCAGGUCAGUGAAAUGGACAGAAGGGCAGAGCAA [C6A U7A C9A U10A C22G A23U], for which the “exon inclusion enrichment index” value amounted to 0.0793.

Regarding AGUUGAAGAAGGGAGCUCCAGGGCAGUGAAAUGGACAGAAGGGCAGAGCAA [C6A U7A C9A U10A C22G A23G], the “exon inclusion enrichment index” value came to 0.212.

Take AGUUGAAGAAGGGAGCUCCAGGCCAGUGAAAUGGACAGAAGGGCAGAGCAA [C6A U7A C9A U10A C22G A23C]: the “exon inclusion enrichment index” value came to 0.321.

AGUUGAAGAAGGGAGCUCCAGCAAUGUGAAAUGGACAGAAGGGCAGAGCAA [C6A U7A C9A U10A C24A A25U]: the “exon inclusion enrichment index” value was 0.754.

For AGUUGAAGAAGGGAGCUCCAGCAACGUGAAAUGGACAGAAGGGCAGAGCAA [C6A U7A C9A U10A C24A A25C], the “exon inclusion enrichment index” value came to 2.22.

Take AGUUGAAGAAGGGAGCUCCAGCAAGGUGAAAUGGACAGAAGGGCAGAGCAA [C6A U7A C9A U10A C24A A25G]: the “exon inclusion enrichment index” value turned out to be 0.796.

As for AGUUGAAGAAGGGAGCUCCAGCAUAGUGAAAUGGACAGAAGGGCAGAGCAA [C6A U7A C9A U10A C24U], the “exon inclusion enrichment index” value turned out to be 0.161.

For the variant AGUUGAAGAAGGGAGCUCCAGCAGAGUGAAAUGGACAGAAGGGCAGAGCAA [C6A U7A C9A U10A C24G], the “exon inclusion enrichment index” value amounted to 0.763.

For the variant AGUUGAAGAAGGGAGCUCCAGCAAAGUGAAAUGGACAGAAGGGCAGAGCAA [C6A U7A C9A U10A C24A], the “exon inclusion enrichment index” value amounted to 0.545.

AGUUGAAGAAGGGAGCUCCAGCACAGUGAAAUGGAGCGAAGGGCAGAGCAA [C6A U7A C9A U10A C36G A37C]: the “exon inclusion enrichment index” value came out at 0.129.

Take AGUUGAAGAAGGGAGCUCCAGCACAGUGAAAUGGAGGGAAGGGCAGAGCAA [C6A U7A C9A U10A C36G A37G]: the “exon inclusion enrichment index” value amounted to 0.0922.

AGUUGAAGAAGGGAGCUCCAGCACAGUGAAAUGGAGUGAAGGGCAGAGCAA [C6A U7A C9A U10A C36G A37U]: the “exon inclusion enrichment index” value is 0.216.

Consider AGUUGAAGAAGGGAGCUCCAACACAGUGAAAUGGACAGAAGGGCAGAGCAA [C6A U7A C9A U10A G21A], for which the “exon inclusion enrichment index” value came out at 0.506.

Turning to AGUUGAAGAAGGGAGCUCCACCACAGUGAAAUGGACAGAAGGGCAGAGCAA [C6A U7A C9A U10A G21C], the “exon inclusion enrichment index” value worked out at 0.86.

AGUUGAAGAAGGGACCUCCAGCACAGUGAAAUGGACAGAAGGGCAGAGCAA [C6A U7A C9A U10A G15C]: the “exon inclusion enrichment index” value worked out at 1.25.

Turning to AGUUGAAGAAGGGAUCUCCAGCACAGUGAAAUGGACAGAAGGGCAGAGCAA [C6A U7A C9A U10A G15U], the “exon inclusion enrichment index” value amounted to 0.786.

With AGUUGAAGAAGGGAACUCCAGCACAGUGAAAUGGACAGAAGGGCAGAGCAA [C6A U7A C9A U10A G15A], the “exon inclusion enrichment index” value is 0.818.

As for AGUUGAAGAAGGGAGCUCCAGAGCAGUGAAAUGGACAGAAGGGCAGAGCAA [C6A U7A C9A U10A C22A A23G], the “exon inclusion enrichment index” value was found to be 0.734.

As to AGUUGAAGAAGGGAGCUCCAGAUCAGUGAAAUGGACAGAAGGGCAGAGCAA [C6A U7A C9A U10A C22A A23U], the “exon inclusion enrichment index” value was found to be 0.354.

On to AGUUGAAGAAGGGAGCUCCAGCACAGUGAAAUGGAAUGAAGGGCAGAGCAA [C6A U7A C9A U10A C36A A37U], for which the “exon inclusion enrichment index” value turned out to be 0.229.

Regarding AGUUGAAGAAGGGAGCUCCAGCACAGUGAAAUGGAACGAAGGGCAGAGCAA [C6A U7A C9A U10A C36A A37C], the “exon inclusion enrichment index” value turned out to be 0.81.

The record behind these values is the RNAGym collection of RNA variant scans (doi:10.1101/gr.219683.116).
